B1: 198D2 (antibody, V domains shown)
VH: QVQLVESGGGVVQPGRSLRLSCAASGFTFRSYGMHWVRQAPGKGLEWVAVIIYDGSYKYYADSVKGRFTISRDNSKNTLYLQMNSLRAEDTAVYYCARTYSGGMDVWGQGTTVTVSS
VL: QSVLTQPPSVSAAPGQKVTISCSGSSSNIGSNYVSWYQQLPGTAPKVLIYDNNKRPSGIPDRFSGSKSGTSATLGITGLQTGDEADYYCGTWDSRLNVGVFGGGTKLTVL
notes: hybridoma mAb
B2: 194C10 (antibody, V domains shown)
VH: QVQLQQWGAGLLKPSETLSLTCAVSGGSFRYYYWSWIRQPPGKGLEWFGEINHSGSTNYNPSLKSRVTISIDTSKNQFSLKLRSVTAADTAVYYCARDYGAFDIWGQGTMVTVSS
VL: EIVLTQSPGTLSLSPGERATLSCRASPSVNSGYLAWYQQKPGQTPRLLIFGASSRATGIPDRFSASGSGADFTLTISRLEPEDFAVYFCQQYESSPWTFGQGTKVEIK
notes: hybridoma mAb
B3: 227F2 (antibody, V domains shown)
VH: QVHLVQSGAEVKKPGASVKVSCKASGYTFTGYYIHWVRQAPGQGLEWMGWINPYSGDTKYAQKFQGRVTMTRDTSISTAYMELSRLRFDDTAVFYCARDWGGYSSYYYGMDVWGQGTTVTVSS
VL: DIVMTQTPLSLSVTPGQPASISCKSSQSLLHSDGKTFLYWYLQKPGQPPQLLIYEISNRFSGVPDRFSGSGSGTDFTLKISRVEAEDVGIYYCMQSTQLPRTFGQGTKVEIK
notes: hybridoma mAb
B4: 176H4 (antibody, V domains shown)
VH: QVQLVESGGGVVQPGRSLRLSCAASGFTFSSYGMHWVRQAPGKGLEWVAIIWYDGSYKYYADSVKGRFTISRDNSKNTLYLQMSSLRAEDTAVYYCARDAHDFWSGYFAYWGQGALVTVSS
VL: DIVMTQTPLSLSVTPGQPASISCKSSQSLLHGDGKTYLYWYLQKPGQPPQLLIYEVSNRFSGVPDRFSGSGSGTDFTLKISRVEAEDVGIYYCMQSIQIPWTFGQGTRVEIK
notes: hybridoma mAb
B5: 196F4 (antibody, V domains shown)
VH: EVQLLESGGGLVQPGGSLRFSCAASGFTFSSCAMTWVRQAPGKGLEWVSAISGSGGSTYYADSVKGRFTISRDNSKNTLYLQMNSLRAEDTAVYYCAKVGGLTGSYYYYGMDVWGQGTTVTVSS
VL: DFQMIQSPSSLSASVGDRVTITCRASQRIHSYLNWYQQKPGKAPKLLIYTASSLQGGVPSRFSGSGSGTDFTLTISSLQPEDFATYYCQQSYGSPLTFGGGTKVEIK
notes: hybridoma mAb
B6: 52D10 (antibody, V domains shown)
VH: QVQLVESGGGVVQPGRSLRLSCAASGFTFSSYGMHWVRQAPGKGLEWVALIWYDGSNKYHADSVKGRFTISRDNSKNTLYLQMNSLRAEDTAVYYCARRYSSSWSGGMDVWGQGTTVTVSS
VL: DVMMTQIPLSLSVTPGQPASISCKSSQSLLHSEGKTYLYWYLQKPGQPPQLLIFEVSNRVSGVPDRFSGRGSGTDFTLKISRVEAEDVGVYYCMQSIQYPITFGQGTRLEIK
notes: hybridoma mAb
B7: 6G7 (antibody, V domains shown)
VH: QVQLVESGGGVVQPGRSLRLSCAASGFTFSSYGMHWVRQTPGKGLEWVAIISYVGKNKYYADSVKGRFTISRDNSKNTLYLQMNSLRAEDTAVYYCARRGNSYGGYGMDVWGQGTTVTVSS
VL: DIQMTQSPSSRSASVGDRVTITCQASQDISNYLNWCQQKPGKALKLLIYDASTLETGVPSRFSGSGSGTDFTFTISSVQPEDIATYYCQQYDNVPITFGQGTRLEIK
B8: 65C12 (antibody, V domains shown)
VH: EVQLVESGGGLVKPGGSLRLSCAASGFTFRSFSLNWVRQAPGKGLEWVSSISSSSSYIYYADSVKGRFTISRDNAKNSLYLQMNSLRAEDTAVYYCARDAYSHYWGQGTLVTVSS
VL: EIVMTQSPATLSVFPGEGATLSCRASQSVSINLAWYQQKPGQAPRLLIYGASTRATGIPARFNASGSGTEFTLSISSLQSENFAVYYCQQYNTWPLTFGGGTKVEIK
notes: hybridoma mAb
B9: 5E5 (antibody, V domains shown)
VH: QVQLVESGGGVVQPGRSLRLSCAASGFTFSNYVMHWVRQAPGKGLEWVAVIWYDGSNKYYADSVKGRFTISRDNSKNTLYLQMNSLRAEDTAVYYCTREVYSSGWYDYGMDVWGQGTTVTVSS
VL: DIQMTQSPSSLSASVGDRVTITCRASQGIRNDLGWYQQKPGKAPKRLIYAASSLQSGVPSRFSGSGSGTEFTLTISSLQPEDFATYYCLQHYSYPRTFGQGTKVEVK
B10: 7F4 (antibody, V domains shown)
VH: QLQLQESGPGLVKPSETLSLTCTVSGGSISRSSYYWGWIRQPPGKGLEWIGNIYYSGATYYNPSLKSRVTISVDTSTNQFSLKLSSVTAADTAVYYCARHSGSWSLDYWGQGTLVTVSS
VL: DIQMTQSPSSLSASVGDRVTITCRTSQGIRNDLGWYQQKPGKAPKRLIYAASNLQSGVPSRFSGSGSGTEFTLTISSLQPEDFATYYCLQHSAYPLTFGGGTKVEIK
B11: 202A3 (antibody, V domains shown)
VH: QVQLEQSGAEVKKPGASVKVSCKASGYTFTSYDINWVRQATGQGLEWLGWMNPKRGNTGYAQKFQGRVTMTRNTSISTAHMELSSLRSEDTAVYYCARGRYSREDYYYYYDMDVWGQGTTVTVSS
VL: DIQMSQSPSSLSASVGDRVTITCRASQGIRNDLGWYQQKPGKAPKRLICAASRLQSGVPSRFSGSGSGTEFTLTISSLQPEDFAIYYCLQHHDYPFTFGPGTKVDIK
notes: hybridoma mAb
B12: 7G4 (antibody, V domains shown)
VH: QVQLVESGGGVVQPGRSLRLSCAASGFTFNNYVMHWVRQAPGKGLEWVAVIWYDGSNKYYADSVKGRFTISRDNSKNTLYLQMTSLRAEDTAVYYCAREKYSSNWYDYGMDVWGQGTTVTVSS
VL: DIQMTQSPSSLSASVGDRVTITCRASQGIRNDLGWYQQRPGKAPKRLIYAASSLQSGVPSRFSGSGSGTEFTLTISSLQPEDSATYYCLHQYSYPRTFGQGTKVEIK

Tests used:
[1] = biological target: T1, recombinant, soluble human ASGR-1 (human, UniProt P07306 62-291); test: Octet BLI dissociation, pH 7.4 minus calcium
T1 construct: biotinylated in the binning assay; also called soluble huASGR-1; Soluble ASGR-1 (Amgen)
T1 sequence: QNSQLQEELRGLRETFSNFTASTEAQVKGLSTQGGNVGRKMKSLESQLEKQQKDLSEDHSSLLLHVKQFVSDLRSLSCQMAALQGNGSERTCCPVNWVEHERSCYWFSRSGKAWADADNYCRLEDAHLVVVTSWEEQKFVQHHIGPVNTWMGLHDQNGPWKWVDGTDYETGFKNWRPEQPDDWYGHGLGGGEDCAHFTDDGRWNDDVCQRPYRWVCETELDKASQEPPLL
Method in brief: (§1)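 Antibodies were captured on anti-human Fc biosensors, and soluble ASGR-1 (6 ug/ml) was associated for 2 min in Tris buffer containing 1 mM CaCl2 at pH 7.4, followed by 10 min dissociation under each test condition. The signal at the end of association was set as 100%. Percent ASGR-1 still bound after 1 min of dissociation was compared with the pH 7.4 plus calcium control, and >10% extra dissociation was scored as sensitive.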

[2] = biological target: T1, recombinant, soluble human ASGR-1; test: Octet BLI dissociation, pH 5.6 minus calcium
Method in brief: as §1

[3] = biological target: T1, recombinant, soluble human ASGR-1; test: Octet BLI dissociation, pH 5.6 plus calcium
Method in brief: as §1

human ASGR-1 [4] = biological target: T2, human ASGR-1 (human, UniProt P07306 1-291); test: FACS ligand blocking on CHO-S ASGR-1 cells; competitor biotinylated asialofetuin
T2 construct: Stably expressed on CHO-S cells (CHO-S:huASGR-1); The method text says human or mouse ASGR-1 cells were used; also called huASGR-1; hASGR-1
T2 sequence: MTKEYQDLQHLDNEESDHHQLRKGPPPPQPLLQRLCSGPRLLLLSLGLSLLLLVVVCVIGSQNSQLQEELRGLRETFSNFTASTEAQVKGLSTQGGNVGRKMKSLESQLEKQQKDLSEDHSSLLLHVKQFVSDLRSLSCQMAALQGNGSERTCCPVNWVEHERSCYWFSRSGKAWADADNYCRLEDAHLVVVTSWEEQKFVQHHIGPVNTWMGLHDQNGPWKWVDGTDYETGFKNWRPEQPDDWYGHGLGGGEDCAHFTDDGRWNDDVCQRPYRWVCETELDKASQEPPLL
Procedure: (§2) All ASGR-1 antibodies that bound either human or mouse ASGR-1 stable CHO—S cells were then tested for ligand blocking using both a protein ligand and a synthetic sugar ligand. The method in brief is as follows: first, 20 ul of either CHO-Shuman or mouse ASGR-1 cells were added to wells of a 384 well plate (30 k cells/well) followed by spin and discarding the supernatant. Second, 10 ul of the antibodies (either purified from hybridoma supernatants or made recombinantly) were added in duplicate to the cells in a dilution series (200 nM top concentration, 1:2 serial dilution, 11 point curve) and were incubated for 30 min at 4 C. […] After 30 min incubation at 4C, the plate was spun and washed twice with FACS buffer+1 mM CaCl2 followed by the detection streptavidin-AF647 at 1:1000 dilution. After 30 min at 4C, the cells were spun and washed once and then 60 ul PI added at 1:1000 dilution and the plates delivered to a core flow cytometry facility. The plates were read and processed similarly to the cell binding method except the signal now represents an inhibition curve and typically decreases a function of increasing antibody concentration. IC50 nM potency and % Inhibition were reported. […] Differences in the ability of antibodies to block these two ligands could occur as a result of differences in, for example, avidity stemming from differences in the number and/or orientation of the ASGR binding terminal sugar residues of each ligand, steric hindrance between antibody and each ligand, and/or changes in the conformation of ASGR induced by antibody binding that selectively alters the binding of each ligand.

human ASGR-1 [5] = biological target: T2, human ASGR-1; test: FACS ligand blocking on CHO-S ASGR-1 cells; labelled ligand biotin-GalNAc-PAA (synthetic sugar)
Procedure: as §2

% Change Compared to pH 7.4 + Calcium [1] [%]	% Change Compared to pH 7.4 + Calcium [2] [%]	% Change Compared to pH 7.4 + Calcium [3] [%]	% Inhibition (human ASGR-1 [4]) [%]	IC50 (human ASGR-1 [4]) [nM]	% Inhibition (human ASGR-1 [5]) [%]	IC50 (human ASGR-1 [5]) [nM]	Binder
-8	-28	-30	–	–	–	–	B1
2	16	10	–	–	–	–	B2
80	100	50	–	–	–	–	B3
2	26	-4	–	–	–	–	B4
-8	-6	-5	–	–	–	–	B5
21	45	3	–	–	–	–	B6
–	–	–	99	11	0	> 200	B7
13	23	0	–	–	–	–	B8
–	–	–	95	–	0	–	B9
–	–	–	99	2.6	30	0.24	B10
-21	-23	-22	–	–	–	–	B11
–	–	–	96	14	-30	20	B12

Reference: patent US20190248902A1 (published 2019)
